This is an account of results in US20200199241A1 (Chugai, published 2020).

Assay [1] concerns the target T1, FcγRIIb (human, UniProt P31994 43-217, limits assumed).
T1 construct: SPR analyte; also called FcγIIB; CD32
T1 sequence: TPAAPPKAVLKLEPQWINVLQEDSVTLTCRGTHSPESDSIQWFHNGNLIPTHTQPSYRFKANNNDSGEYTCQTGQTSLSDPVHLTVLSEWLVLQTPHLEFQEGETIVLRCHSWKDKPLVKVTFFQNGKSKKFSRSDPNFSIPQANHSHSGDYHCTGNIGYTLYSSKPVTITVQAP
Kind of assay: ratio of SPR KDs; reference IL6R-B3/IL6R-L.

In a further assay the target is T2, FcγRIa (human, UniProt P12314 16-292, limits assumed).
T2 construct: SPR analyte; also called CD64
T2 sequence (P12314 16-292 limits assumed): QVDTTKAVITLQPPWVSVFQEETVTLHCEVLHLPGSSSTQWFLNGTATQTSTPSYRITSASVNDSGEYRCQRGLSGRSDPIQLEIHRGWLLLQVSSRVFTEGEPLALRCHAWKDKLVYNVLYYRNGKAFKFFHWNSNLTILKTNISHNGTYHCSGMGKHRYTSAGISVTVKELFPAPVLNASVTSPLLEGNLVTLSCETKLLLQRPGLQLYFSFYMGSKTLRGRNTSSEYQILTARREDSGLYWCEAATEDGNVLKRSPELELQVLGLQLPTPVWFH
The assay is described as follows: SPR (Biacore), antibody captured, FcγR analyte.

Assay [2] has as its target T3, FcγRIIa type R (human, UniProt P12318 36-217).
T3 construct: SPR analyte; also called FcγRIIaR; FcγRIIa(R)
T3 chain: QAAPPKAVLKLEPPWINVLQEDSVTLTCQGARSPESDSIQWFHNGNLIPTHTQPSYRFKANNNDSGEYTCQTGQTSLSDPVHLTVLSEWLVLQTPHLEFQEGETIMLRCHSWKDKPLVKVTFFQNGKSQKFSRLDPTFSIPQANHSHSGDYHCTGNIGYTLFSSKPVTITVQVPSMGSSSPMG
The assay is described as follows: SPR (Biacore), antibody captured, FcγR analyte.

A further assay deals with T4, FcγRIIa type H (human, UniProt P12318 36-217).
T4 construct: SPR analyte; also called FcγRIIaH
T4 sequence: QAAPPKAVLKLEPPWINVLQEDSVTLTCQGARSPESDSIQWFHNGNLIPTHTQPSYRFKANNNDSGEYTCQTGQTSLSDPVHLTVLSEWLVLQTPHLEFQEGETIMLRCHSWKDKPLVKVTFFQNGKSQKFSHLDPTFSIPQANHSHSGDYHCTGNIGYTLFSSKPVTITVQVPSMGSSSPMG
The assay is described as follows: SPR (Biacore), antibody captured, FcγR analyte.

In assay [3] the target is T1, FcγRIIb. The assay is described as follows: SPR (Biacore), antibody captured, FcγR analyte.
The target in a further assay is T5, FcγRIIIa type V (human, UniProt P08637 17-208, limits assumed).
T5 construct: SPR analyte; allotype V158 was used here; also called FcγRIIIaV; FcγRIIIa(V)
T5 sequence (P08637 other isoform, or with tags, fused parts or gaps limits assumed): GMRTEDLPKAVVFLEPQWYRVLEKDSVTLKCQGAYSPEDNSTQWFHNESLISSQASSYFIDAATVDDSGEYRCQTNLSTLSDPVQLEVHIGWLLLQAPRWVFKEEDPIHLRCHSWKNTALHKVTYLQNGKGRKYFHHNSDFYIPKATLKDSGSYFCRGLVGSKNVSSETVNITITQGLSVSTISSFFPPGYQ
The assay is described as follows: SPR (Biacore), antibody captured, FcγR analyte.

Assay [4] concerns the target T1, FcγRIIb. Kind of assay: ratio of SPR KDs: KD for FcγRIIaH over KD for FcγRIIb.
From the text: (§1) Furthermore, KD(IIaR)/KD(IIb) and KD(IIaH)/KD(IIb) in the table respectively represent the value obtained by dividing the KD value of each variant for FcγRIIaR by the KD value of each variant for FcγRIIb, and the value obtained by dividing the KD value of each variant for FcγRIIaH by the KD value of each variant for FcγRIIb.
Assay [5] has as its target T1, FcγRIIb. The assay is described as follows: ratio of SPR KDs: KD for FcγRIIaR over KD for FcγRIIb.
From the text: as §1
The target in assay [6] is T3, FcγRIIa type R. Kind of assay: ratio of SPR KDs; stronger receptor here FcγRIIaR; reference IL6R-B3/IL6R-L (FcγRIIaH).
From the text: Furthermore, KD(IIaR)/KD(IIb) and KD(IIaH)/KD(IIb) in the table respectively represent the value obtained by dividing the KD value of each variant for FcγRIIaR by the KD value of each variant for FcγRIIb, and the value obtained by dividing the KD value of each variant for FcγRIIaH by the KD value of each variant for FcγRIIb. KD(IIb) of the parent polypeptide/KD(IIb) of the altered polypeptide refers to the value obtained by dividing the KD value of the parent polypeptide for FcγRIIb by the KD value of each variant for FcγRIIb.

B1: IL6R-BF648/IL6R-L (antibody, human IgG1)
heavy: not shown
light: DIQMTQSPSSLSASVGDRVTITCRASQDISSYLNWYQQKPGKAPKLLIYYTSRLHSGVPSRFSGSGSGTDFTFTISSLQPEDIATYYCQQGNTLPYTFGQGTKVEIK
For B1, the “KD(IIb) of the parent polypeptide/KD(IIb) of altered polypeptide” value (from here on “KD(IIb) … of altered polypeptide”) in the assay with FcγRIIb [1] was 2.5. Besides, the Kd is 0.011 µM with FcγRIa; 15 µM with FcγRIIa type R [2]; 40 µM with FcγRIIa type H; 1.2 µM in the assay with FcγRIIb [3]; 71 µM with FcγRIIIa type V. The “KD(IIaH)/KD(IIb)” value with FcγRIIb [4] was found to be 33.9. Moreover, in the assay with FcγRIIb [5], the “KD(IIaR)/KD(IIb)” value came out at 13. In addition, the “KD of the stronger of FcγRIIaR/FcγRIIaH binding of the variant / that of the parent polypeptide” value with FcγRIIa type R [6] was 19.9.

B2: IL6R-BP178/IL6R-L (antibody, human IgG1)
heavy: QVQLQESGPGLVKPSETLSLTCAVSGHSISHDHAWSWVRQPPGEGLEWIGFISYSGITNYNPSLQGRVTISRDNSKNTLYLQMNSLRAEDTAVYYCARSLARTTAMDYWGEGTLVTVSSASTKGPSVFPLAPSSKSTSGGTAALGCLVKDYFPEPVTVSWNSGALTSGVHTFPAVLQSSGLYSLSSVVTVPSSSLGTQTYICNVNHKPSNTKVDKKVEPKSCDKTHTCPPCPAPDLLGDDSVFLFPPKPKDTLMISRTPEVTCVVVDVSHEDGEVKFNWYVDGVEVHNAKTKPREEQYNSTYRVVSVLTVLHQDWLNGKEYKCKVSNKALPKPIEKTISKAKGQPREPQVYTLPPSRDELTKNQVSLTCLVKGFYPSDIAVEWESNGQPENNYKTTPPVLDSDGSFFLYSKLTVDKSRWQQGNVFSCSVMHEALHNHYTQESLSLSP
light: DIQMTQSPSSLSASVGDRVTITCRASQDISSYLNWYQQKPGKAPKLLIYYTSRLHSGVPSRFSGSGSGTDFTFTISSLQPEDIATYYCQQGNTLPYTFGQGTKVEIK
Turning to B2, the “KD(IIb) … of altered polypeptide” value in the assay with FcγRIIb [1] stood at 60.1. For the same molecule, the Kd with FcγRIa was found to be 0.043 µM; with FcγRIIa type R [2], 0.93 µM; in the assay with FcγRIIa type H, 14 µM; with FcγRIIb [3], 0.051 µM. The “KD of the stronger of FcγRIIaR/FcγRIIaH binding of the variant / that of the parent polypeptide” value in the assay with FcγRIIa type R [6] came out at 1.2.

B3: IL6R-BP087/IL6R-L (antibody, human IgG1)
heavy: QVQLQESGPGLVKPSETLSLTCAVSGHSISHDHAWSWVRQPPGEGLEWIGFISYSGITNYNPSLQGRVTISRDNSKNTLYLQMNSLRAEDTAVYYCARSLARTTAMDYWGEGTLVTVSSASTKGPSVFPLAPSSKSTSGGTAALGCLVKDYFPEPVTVSWNSGALTSGVHTFPAVLQSSGLYSLSSVVTVPSSSLGTQTYICNVNHKPSNTKVDKKVEPKSCDKTHTCPPCPAPEYLGGDSVFLFPPKPKDTLMISRTPEVTCVVVDVSHEDPEVKFNWYVDGVEVHNAKTKPREEQYNSTYRVVSVLTVLHQDWLNGKEYKCKVSNKALPKPIEKTISKAKGQPREPQVYTLPPSRDELTKNQVSLTCLVKGFYPSDIAVEWESNGQPENNYKTTPPVLDSDGSFFLYSKLTVDKSRWQQGNVFSCSVMHEALHNHYTQESLSLSP
light: DIQMTQSPSSLSASVGDRVTITCRASQDISSYLNWYQQKPGKAPKLLIYYTSRLHSGVPSRFSGSGSGTDFTFTISSLQPEDIATYYCQQGNTLPYTFGQGTKVEIK
As for B3, the “KD(IIb) … of altered polypeptide” value with FcγRIIb [1] is 5.1. The Kd was 0.038 µM in the assay with FcγRIa; 9.7 µM with FcγRIIa type R [2]; 21 µM in the assay with FcγRIIa type H; 0.61 µM with FcγRIIb [3]; 44 µM with FcγRIIIa type V. For the same molecule, the “KD(IIaH)/KD(IIb)” value in the assay with FcγRIIb [4] is 34.7. For the same molecule, the “KD(IIaR)/KD(IIb)” value with FcγRIIb [5] came to 16. For the same molecule, the “KD of the stronger of FcγRIIaR/FcγRIIaH binding of the variant / that of the parent polypeptide” value with FcγRIIa type R [6] was 12.6.

B4: IL6R-BP180/IL6R-L (antibody, human IgG1)
heavy: QVQLQESGPGLVKPSETLSLTCAVSGHSISHDHAWSWVRQPPGEGLEWIGFISYSGITNYNPSLQGRVTISRDNSKNTLYLQMNSLRAEDTAVYYCARSLARTTAMDYWGEGTLVTVSSASTKGPSVFPLAPSSKSTSGGTAALGCLVKDYFPEPVTVSWNSGALTSGVHTFPAVLQSSGLYSLSSVVTVPSSSLGTQTYICNVNHKPSNTKVDKKVEPKSCDKTHTCPPCPAPELLGDDSVFLFPPKPKDTLMISRTPEVTCVVVDVSHEDGEVKFNWYVDGVEVHNAKTKPREEQYNSTYRVVSVLTVLHQDWLNGKEYKCKVSNKALPKPIEKTISKAKGQPREPQVYTLPPSRDELTKNQVSLTCLVKGFYPSDIAVEWESNGQPENNYKTTPPVLDSDGSFFLYSKLTVDKSRWQQGNVFSCSVMHEALHNHYTQESLSLSP
light: DIQMTQSPSSLSASVGDRVTITCRASQDISSYLNWYQQKPGKAPKLLIYYTSRLHSGVPSRFSGSGSGTDFTFTISSLQPEDIATYYCQQGNTLPYTFGQGTKVEIK
For B4, in the assay with FcγRIIb [1], the “KD(IIb) … of altered polypeptide” value amounted to 49.9. Besides, the equilibrium dissociation constant (Kd) with FcγRIIa type R [2] worked out at 1.2 µM; with FcγRIIa type H, 18 µM; with FcγRIIb [3], 0.062 µM; in the assay with FcγRIIIa type V it was 70 µM. Besides, the “KD(IIaH)/KD(IIb)” value in the assay with FcγRIIb [4] came out at 191. Moreover, the “KD(IIaR)/KD(IIb)” value with FcγRIIb [5] worked out at 18.6. For the same molecule, the “KD of the stronger of FcγRIIaR/FcγRIIaH binding of the variant / that of the parent polypeptide” value with FcγRIIa type R [6] turned out to be 1.5.

B5: IL6R-BP130/IL6R-L (antibody, human IgG1)
heavy: QVQLQESGPGLVKPSETLSLTCAVSGHSISHDHAWSWVRQPPGEGLEWIGFISYSGITNYNPSLQGRVTISRDNSKNTLYLQMNSLRAEDTAVYYCARSLARTTAMDYWGEGTLVTVSSASTKGPSVFPLAPSSKSTSGGTAALGCLVKDYFPEPVTVSWNSGALTSGVHTFPAVLQSSGLYSLSSVVTVPSSSLGTQTYICNVNHKPSNTKVDKKVEPKSCDKTHTCPPCPAPDLLGGDSVFLFPPKPKDTLMISRTPEVTCVVVDVSHEDPEVKFNWYVDGVEVHNAKTKPREEQYNSTYRVVSVLTVLHQDWLNGKEYKCKMSNKALPKPIEKTISKAKGQPREPQVYTLPPSRDELTKNQVSLTCLVKGFYPSDIAVEWESNGQPENNYKTTPPVLDSDGSFFLYSKLTVDKSRWQQGNVFSCSVMHEALHNHYTQESLSLSP
light: DIQMTQSPSSLSASVGDRVTITCRASQDISSYLNWYQQKPGKAPKLLIYYTSRLHSGVPSRFSGSGSGTDFTFTISSLQPEDIATYYCQQGNTLPYTFGQGTKVEIK
Turning to B5, the “KD(IIb) … of altered polypeptide” value with FcγRIIb [1] is 10.2. The dissociation constant Kd with FcγRIa was 0.0018 µM; in the assay with FcγRIIa type R [2] it was 5.3 µM; with FcγRIIa type H, 26 µM; in the assay with FcγRIIb [3], 0.3 µM; with FcγRIIIa type V, 71 µM. For the same molecule, the “KD(IIaH)/KD(IIb)” value in the assay with FcγRIIb [4] was found to be 85.5. Besides, the “KD(IIaR)/KD(IIb)” value with FcγRIIb [5] stood at 17.5. For the same molecule, in the assay with FcγRIIa type R [6], the “KD of the stronger of FcγRIIaR/FcγRIIaH binding of the variant / that of the parent polypeptide” value stood at 6.9.

B6: IL6R-BP086/IL6R-L (antibody, human IgG1)
heavy: QVQLQESGPGLVKPSETLSLTCAVSGHSISHDHAWSWVRQPPGEGLEWIGFISYSGITNYNPSLQGRVTISRDNSKNTLYLQMNSLRAEDTAVYYCARSLARTTAMDYWGEGTLVTVSSASTKGPSVFPLAPSSKSTSGGTAALGCLVKDYFPEPVTVSWNSGALTSGVHTFPAVLQSSGLYSLSSVVTVPSSSLGTQTYICNVNHKPSNTKVDKKVEPKSCDKTHTCPPCPAPELLGGDSVFLFPPKPKDTLMISRTPEVTCVVVDVSHEDPEVKFNWYVDGVEVHNAKTKPREEQYNSTYRVVSVLTVLHQDWLNGKEYKCKVSNAALPKPIEKTISKAKGQPREPQVYTLPPSRDELTKNQVSLTCLVKGFYPSDIAVEWESNGQPENNYKTTPPVLDSDGSFFLYSKLTVDKSRWQQGNVFSCSVMHEALHNHYTQESLSLSP
light: DIQMTQSPSSLSASVGDRVTITCRASQDISSYLNWYQQKPGKAPKLLIYYTSRLHSGVPSRFSGSGSGTDFTFTISSLQPEDIATYYCQQGNTLPYTFGQGTKVEIK
Turning to B6, in the assay with FcγRIIb [1], the “KD(IIb) … of altered polypeptide” value turned out to be 5.4. In addition, the equilibrium dissociation constant (Kd) came to 0.027 µM in the assay with FcγRIa; 9.7 µM with FcγRIIa type R [2]; 34 µM in the assay with FcγRIIa type H; 0.57 µM with FcγRIIb [3]; 57 µM with FcγRIIIa type V. The “KD(IIaH)/KD(IIb)” value in the assay with FcγRIIb [4] stood at 59.9. For the same molecule, in the assay with FcγRIIb [5], the “KD(IIaR)/KD(IIb)” value came out at 17.1. Besides, the “KD of the stronger of FcγRIIaR/FcγRIIaH binding of the variant / that of the parent polypeptide” value in the assay with FcγRIIa type R [6] worked out at 12.6.
